The values below come from the nanobody polyreactivity screen of Harvey et al. (2022).

This data set in a line: yeast display, Sf9 membrane polyspecificity reagent, FACS + sequencing; frameworks hold sequencing errors. A digest of the protocol:
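After 36–48 hours of galactose induction, yeast (Saccharomyces cerevisiae BJ5465) displaying a synthetic nanobody library were stained at 4 °C for 1 hour with 10% biotinylated, detergent-solubilized Sf9 membrane reagent. Streptavidin microbeads enriched the stained cells before FACS sorting into low and high (top ~1%) gates on anti-HA and streptavidin fluorescence. Each clone's polyreactivity label reflects its gate of origin.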
As for “QVQIVESGGGLVQAGGSLRLSCAASGFTFRYYAMGWYRQAPGQERELVAAISKSGGSTYYADSVKGRFTISRDNAKNTVDLQMNSLKPEDTAVYYCAADYAHIGYDYDYWGQGTQVTVSS”, the “polyreactivity (PSR sort gate)” value was “high polyreactivity”.

Regarding “QVQIVESGGGLVQAGGSLRLSCAASGFTFWRNAMVWYRQAPGKERELVAAINWSGGSTYYADSVKGRFTISRDNAKNTVYLQMNSLKPEDTAVYYCAADLSSRGISQDDYWGQGTQVTVSS”, the “polyreactivity (PSR sort gate)” value is given as “high polyreactivity”.

Consider “QVQIVESGGGLVQAGGSLRLSCAASGITFRFYALGWYRQATGKERELVAAISWSGGSTNYADSVKGRFTISRDNAKNTVYLQMNSLKPEDTAVYYCNVVGKYYSGGTYEYWGQGTQVTVSS”, for which the “polyreactivity (PSR sort gate)” value is “high polyreactivity”.

Regarding “QVQIVESGGGLVQAGGSLRLSCAASGLIFKYYAMGWYRQAPGKERELVATITRGGGSTYYADSVKGRFTISRDNAKNTVYLQMNSLKPEDTAVYYCAADYWYVYPRYNPGDYWGQGTQVTVSS”, the “polyreactivity (PSR sort gate)” value was “high polyreactivity”.

In the case of “QVQIVESGGGLVQAGGSLRLSCAASGLTFEWYTMGWYRQAPGKERELVAVITVSGSSTYYADSVKGRFTISRDNAKNTVYLQMNSLKPEDTAVYYCNADWSFYSYTLYDYWGQGTQVTVSS”, the “polyreactivity (PSR sort gate)” value is on record as “low polyreactivity”.

In the case of “QVQIVESGGGLVQAGGSLRLSCAASGNTFYVNVMGWYRQAPGKEREFVAAISTRGVSTSYADSVKGRFTISRDNAKNTVYLQMNSLKPEDTAVYYCAASFRRPQPKGTTYGYWGQGTQVTVSS”, the “polyreactivity (PSR sort gate)” value is given as “high polyreactivity”.

Consider “QVQIVESGGGLVQAGGSLRLSCAASGRIFDYYAMGWYRQAPGKERELVADITSGGSTYYADSVKGRFTISRDNAKNTVYLQMNSLKPEDTAVYYCNADGPGSYIWYYFVYTTPEYDYWGQGTQVTVSS”, for which the “polyreactivity (PSR sort gate)” value was “low polyreactivity”.

For the sequence “QVQIVESGGGLVQAGGSLRLSCAASGRIFYRYDMGWYRQAPGKERELVAVISGGGTYYADSVKGRFTISRDNAKNTVYLQMNSLKPEDTAVYYCAADDGVSLVSPYYGGYDYWGQGTQVTVSS”, the “polyreactivity (PSR sort gate)” value is on record as “low polyreactivity”.

As for “QVQIVESGGGLVQAGGSLRLSCAASGRIIRINAMGWSRQAPGKERELVAAITRGGTTYADSVKGRFTISRDNAKNTVYLQMNSLKPEDTAVYYCNARTGRSPTGFRYWGQGTQVTVSS”, the “polyreactivity (PSR sort gate)” value is listed as “high polyreactivity”.

On to “QVQIVESGGGLVQAGGSLRLSCAASGRTFAYYAMGWYRQAPGKERELVATISGSGGTTRYADSVKGRFTISRDNAKNTVYLQMNSLKPEDTAVYYCAARYASGRRGEYWGQGTQVTVSS”, for which the “polyreactivity (PSR sort gate)” value is “high polyreactivity”.

In the case of “QVQIVESGGGLVQAGGSLRLSCAASGRTFAYYSMGWYRPAPGKEREFVAAISRSGGSTYYADSVKGRFTISRDNAKNTVYLQMNSLKPEDTAVYYCNARYIWKQYRYDYWGQGTQVTVSS”, the “polyreactivity (PSR sort gate)” value is given as “high polyreactivity”.

Regarding “QVQIVESGGGLVQAGGSLRLSCAASGRTFNRNAMGWYRQAPGKERELVAAISRGGGGTFYADSVKGRFTISRDNAKNTVYLQMNSLKPEDTAVYYCAKTLRGWHTIITDYDYWGQGTQVTVSS”, the “polyreactivity (PSR sort gate)” value was “low polyreactivity”.

For “QVQIVESGGGLVQAGGSLRLSCAASGRTFYSYAMGWYRQAPGKERELVAAIRWTGVRTYYADSVKGRFTISRDNAKNTVYLEINSLKPEDTAVYYCAVFRSSGKGYRGPRDYWGQGTQVTVSS”, the “polyreactivity (PSR sort gate)” value was “high polyreactivity”.

As for “QVQIVESGGGLVQAGGSLRLSCAASGRTLDSNAIGWYRKATRKERVLVAAISSAGSTNYADSVKGRFTISRDNAKNTVYLQMNSLKPEDTAVYYCAADLIGSHDYSGQGTQVTVSS”, the “polyreactivity (PSR sort gate)” value is recorded as “low polyreactivity”.

“QVQIVESGGGLVQAGGSLRLSCAASGRTTSTNAMGWYRQAPGKERELVASISWRGGSTYYADSVKGRFTISRDNAKNTVYLEMNCLKPEDTAVYYCAASWPRWWRFGYWGQGTQVTVSS”: the “polyreactivity (PSR sort gate)” value is reported as “low polyreactivity”.

For the sequence “QVQIVESGGGLVQAGGSLRLSCAASGSIFDSNAMGWYRQAPGKERELVASITSDGDTYYADSVKGRFTISRDNAKNTVYLQMNSVKPEDTAVYYGAAYVPYSGLDYWGQGTQVTVSS”, the “polyreactivity (PSR sort gate)” value was “low polyreactivity”.

On to “QVQIVESGGGLVQAGGSLRLSCAASGSIFGTNTMGWYRPAPGKEWEFVAAIRLSDSSTYYADSVKWRFTISRDNAKNTVYLQMNSLKPEDTEVYYCAVDYRAYHYYLYDYWGQGTQVTVSS”, for which the “polyreactivity (PSR sort gate)” value was “low polyreactivity”.

Regarding “QVQIVESGGGLVQAGGSLRLSCAASGSIFLKYAMGWYRQAPGKERELVATFSRGGSTNYADSVKGRFTISRDNAKITVYFQMNSLKPEDTAVYNCARRRTYPPGRYYYWGQGTQVTVSS”, the “polyreactivity (PSR sort gate)” value is listed as “high polyreactivity”.

For “QVQIVESGGGLVQAGGSLRLSCAASGSIFPAYAMGWYRQAPGKEREFVAAISGTGGITYYADSVKGRFTISRDNAKNTVYLQMNSLKPEDTAVYFCAAPVYNRDKHDYDYWGQGTQVTVSS”, the “polyreactivity (PSR sort gate)” value is recorded as “low polyreactivity”.

As for “QVQIVESGGGLVQAGGSLRLSCAASGSIFRKNAMGWYRQAPGKERELVAAITRRGGSTYYADSVKARFTISRDNAKNTVYLQMNSLKPEDTAVYYCAATGGAPYKIEWGQGTQVTVSS”, the “polyreactivity (PSR sort gate)” value was “low polyreactivity”.

Regarding “QVQIVESGGGLVQAGGSLRLSCAASGSIFTPYAMGWYRQATGKERELVADIDASGGGTYADSVKGRFTISRDNANNTVYLQMNSLKPEDTAVYYCNTDPYSSAWYNYDYWGQGTQVTVSS”, the “polyreactivity (PSR sort gate)” value was “low polyreactivity”.

As for “QVQIVESGGGLVQAGGSLRLSCAASGSILYYYAMGWYRQAPGKERELVATITSGGTTNYADSVKGRFTISRDNAKNTFYLQMNRLKPEDTAVYYCATEEVYGQGNYWGQGTQVTVSS”, the “polyreactivity (PSR sort gate)” value is “low polyreactivity”.

With “QVQIVESGGGLVQAGGSLRLSCAASGSTFGKYAMGWYRQAPGKERELVAAITRRTGSTYYADSVKGRFTISRDNAKNTVYLQMNSLKPEDTAVYYCAARLPQYRYDYWGQGTQVTVSS”, the “polyreactivity (PSR sort gate)” value is “high polyreactivity”.

“QVQIVESGGGLVQAGGSLRLSCAASGSTFRLYVMGWYRQAPGKERELVARISSRGGSTYYADSVKGRFTISRDNAQNTVYLQMTSLKPEDTAVYYCAKDVDLDTWKYDYWGQGTKVTVSS”: the “polyreactivity (PSR sort gate)” value is reported as “low polyreactivity”.

As for “QVQIVESGGGLVQAGGSLRLSCAASGSTFTWYAMGWYRQAPGKERELVAAIRYSGDSTYYADSVKGRFTISRDNAKNTVYLQMNSLKPEDTAVYYCAAQYYPQYRRRMNYWGQGTQVTVSS”, the “polyreactivity (PSR sort gate)” value is recorded as “high polyreactivity”.

Take “QVQIVESGGGLVQAGGSLRLSCAASGSTFYRNAMGWYRQAPGKEREFVATISWNGGNTYYADSVKGRFTISRDNAKNTVYLQMNSVKPEDTAVYYCDARVKYRTSGGTVVSYDYWGQGTQVTVSS”: the “polyreactivity (PSR sort gate)” value is recorded as “high polyreactivity”.

“QVQIVESGGGLVQAGGSLRLSCADSGIIFYYNAMGWYRQAPGKERELVAAIDDRGDSTYYADSVKGRFTISRDNAKNTVYLQMNSMKPEDTAVYYCAARDRYLYFDAMDYWGQGTLVTVSS”: the “polyreactivity (PSR sort gate)” value is “low polyreactivity”.

As for “QVQIVESGGGLVQAGGSLRLSCAPSGRIITRKTMGWYRQAPGKEREFVAAISQSGGRTYYADSVKGRFTISRDNAKNTVYLQMNSLKPEDTAVYYCNAQFARSSGFNYWGQGTQVTVSS”, the “polyreactivity (PSR sort gate)” value is “high polyreactivity”.

In the case of “QVQIVESGGGLVQAGGSLRLSCDASGSILLWNTMGWYRQAPGKERELVADSSLSASSTYYADSVKGRFTISRDNAQNTVYLELNSLKPEDTAVYFCAADEYSPDYGQGYDYWGEGTQVTVSS”, the “polyreactivity (PSR sort gate)” value is given as “low polyreactivity”.

As for “QVQIVESGGGLVQAGGSLRLSCGASGLSFYYYAMGWYRQAPGKERELVASISTGGNTYYADSVKGRFTISRVNAKNTVYLQMNSLNPEDTAVYYCAAGLYSWSGYASYNSAYGYWGQGTQVTVSS”, the “polyreactivity (PSR sort gate)” value is “low polyreactivity”.

“QVQIVESGGGLVQAGGSLRLSCPASGSIFPQYAMGWSRQAPRKERELVAGISGSGGGTYYADSVKGRITILRDNAKNNVFLQMNSVKPEETAVYYCNALYAPYGWFYGLYDYGGQGTQVTVSS”: the “polyreactivity (PSR sort gate)” value is recorded as “low polyreactivity”.

In the case of “QVQIVESGGGLVQAGGSLRLSWAASGSNLDFNAMGWYRQAHGKERELVAAINNSGGSTYYADSLKGRFTISRDTAKKTVYLQMNRLKPEDTAVYYCARYAFWKRAYWGQGTQETVSS”, the “polyreactivity (PSR sort gate)” value was “low polyreactivity”.

With “QVQIVESGGGLVQAGGSLRVSCAASGSILSKYDMGWYRPAPGKERELVAVISSRGGSTYYADSVKGRFTISRDNAKNTVYLQMNSLKPEDTAVYYCNARSGRGYGYWGQGTQVTVSS”, the “polyreactivity (PSR sort gate)” value is listed as “high polyreactivity”.

As for “QVQIVESGGGLVQAGGSLRVTCAASGSIFPPKAMGWYRQAPGKERELLADISGSGRTYYADSVKGRFTISRDNAKNTVYLQMNSLNPEDTAVYYCAARQQRRPTTRVFGYWGQGTQVTVSS”, the “polyreactivity (PSR sort gate)” value is on record as “high polyreactivity”.

As for “QVQIVESGGGLVQAGGSRRFSCAASGGTFNWNAMGWYRQAPGKERELFAAINRTGGSTYYADSVKARFTISRDNAMNTVYLQMNSLKPEDTAVYYCAKRYYRFYLGWPPEDSWGQGTQVSVSS”, the “polyreactivity (PSR sort gate)” value is “low polyreactivity”.

Turning to “QVQIVESGGGLVQAGRSLRLSCAASGLIFRRYTMGWYRQAPGKERELVAAIRNSGSSTDYADSVKGRFTISRDNAKNTVYLQMNSLKPEYTAVYYCAKRSACKLTYDSWGQGTQVTGSS”, the “polyreactivity (PSR sort gate)” value is “low polyreactivity”.

Take “QVQIVESGGGLVQPGGSLRLSCAASGITFYKYAMGWYRPAPGKERELLAAISKSGGRTYYADSVKGRFTISRDNAKNTVYLQMNSLKPEDTAVYYCNAQPNYAYHGEDDYWGQGNQVTVSS”: the “polyreactivity (PSR sort gate)” value is on record as “high polyreactivity”.

With “QVQIVESGGGLVQPGGSLRLSCAASGSTFTRNAMGWYRQAPGKERELVAAISFSGGSTYYADSVKGRFTISRDTAKNTVYLQMNSLKPEDTAVYYCAAEEGRVFSGGYDYWGQGTQVTVSS”, the “polyreactivity (PSR sort gate)” value is on record as “high polyreactivity”.

“QVQIVESGGGVVQAGGSLRLICAASGSTFLVYAMGWYRQAPGKERELVAAISGRGGRTYYADSVKGRFTISRDIAKNTVYLQMNSLKPEDTAVYYCAKVSKYGAYDYWGQGTQVTVSS”: the “polyreactivity (PSR sort gate)” value is “high polyreactivity”.

For “QVQIVESGGRLVQAGGSLRLSCAASGLTFRRYAMGWYRQAPGKERELVASITYRGGSTYYADSVKARFTISRDNAKNTVYLQINSLKPEDTAVYHCNAKGQRNKRCRGYWGQGSQVTVSS”, the “polyreactivity (PSR sort gate)” value is “high polyreactivity”.

“QVQIVESGGVLVQAGGSLRLSCAASGRIFGSYAMGWYRQAPGKERELVAGIRSVGSTNYADSVKGRFTISRDNEKNTVYLQMNSLKPEDTAVYYCAACLWHPTFGYWGQGTQVTVSS”: the “polyreactivity (PSR sort gate)” value is recorded as “low polyreactivity”.
